This note sets out measurements from the supplement of paper PMC10567573.

± gives the standard deviation.

This data set can be described thus: protein stability index of a GFP-peptide fusion (GPS, HEK-293T) (PSI 1-6); higher = more stable.
Setting [1] is: treatment: DMSO, c terminus: a fixed tail appended.
The mark [2] stands for this setting: treatment: MLN4924 1 uM, 8 h, c terminus: a fixed tail appended.
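Note: 24-mer peptide tiles fused after GFP, lentivirally expressed, FACS-sorted into six equal bins by GFP/DsRed ratio, decoded by Illumina sequencing, PSI is the read-weighted mean bin number.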

Regarding CVDATRETNRLGRLINHSKCGNCQ [KMT5A], the protein stability index is, setting by setting: under setting [1], 3.48 ± 0.41; under setting [2], 3.84 ± 0.27.
Consider GGAAWSIGAAPFSGRRNWCSYVVT [EMID1], for which the protein stability index reads like this: under setting [1], 1.94 ± 0.58; under setting [2], 2.08 ± 0.095.
For the sequence KLKPLGEAEREFILNLKKKECKDR [NLN], the protein stability index amounted to 4.17 ± 0.23 under setting [1] and 4.45 ± 0.2 under setting [2].
In the same order, the values of LLDKAGVPPGVVNIVFGTGPRVGE [ALDH8A1] are 2.53 ± 0.16 and 2.76 ± 0.51.
For PVLGRRAVGGRLRLVPGGQRPADV [HAGHL] the same measures were 3.64 ± 0.17 and 3.88 ± 0.36.
In the same order, the values of ATEWQKAGAPPPSGSAVSTAPQQK [SRPK2] are 5.42 ± 0.14 and 5.18 ± 0.21.
For the sequence GTLDCISMALTCTFNRWGTLLAVG [RBBP5], the protein stability index amounted to 3.2 ± 0.3 under setting [1] and 3.24 ± 0.59 under setting [2].
For YLCFLLAVLLQLYVATEAILIALV [SLC22A15] the same measures were 2.64 ± 0.38 and 2.51 ± 0.63.
In the same order, the values of SPTDIQDSSIIRTTQDLFAINRDT [RHOBTB3] are 4.47 ± 0.15 and 4.67 ± 0.44.
Turning to DMSWTCGNQDYKYRVSDVTKAGHS [VDR], the protein stability index reads like this: under setting [1], 2.73 ± 0.15; under setting [2], 2.74 ± 0.095.
In the same order, the values of DQLRSGSPPKSPRTTVHDKSAHQT [DNAJC4] are 5.26 ± 0.25 and 5.4 ± 0.14.
For TTLSFYGNSISISALQSLLQHLIG [PRAME], the protein stability index is, setting by setting: under setting [1], 2.82 ± 0.46; under setting [2], 2.82 ± 0.48.
For the sequence LTGTESPFDLEQQWQDLMSIMEMQ [NFE2L1], the protein stability index came out at 3.95 ± 0.23 under setting [1] and 3.88 ± 0.47 under setting [2].
Regarding RHLRSAHRRELESSGAGSSPPAAP [ZBED3], the protein stability index reads like this: under setting [1], 5.09 ± 0.36; under setting [2], 5.1 ± 0.28.
Regarding PPETTETPKCSSPRGQEGSRQDKP [YJU2B], the protein stability index reads like this: under setting [1], 5.5 ± 0.36; under setting [2], 5.54 ± 0.26.
EGYCQAQAPIAAVLLMHMPAEQAF [TBC1D10A]: the protein stability index reads like this: under setting [1], 2.33 ± 0.49; under setting [2], 2.03 ± 0.27.
In the same order, the values of HASKCEFLANLHITALLNVSRRTS [DUSP5] are 2.2 ± 0.2 and 2.33 ± 0.22.
For NSKKEEPQELLQSQDFVGEKLGSG [ATE1] the same measures were 5.51 ± 0.11 and 5.42 ± 0.23.
On to LLELAGEVTDTGDPIVRPLWWIAP [MYORG], for which the protein stability index is, setting by setting: under setting [1], 2.46 ± 0.21; under setting [2], 2.43 ± 0.24.
Turning to KEIQYLKDLIEEVRKARGKKRVP [ATF4], the protein stability index came out at 2.52 ± 0.47 (treatment: DMSO, c terminus: native) and 2.33 ± 0.47 (treatment: MLN4924 1 uM, 8 h, c terminus: native).
As for KPLFCGNSEADQLGKIFDLIGLPP [CDK4], the protein stability index was 2.62 ± 0.15 under setting [1] and 2.71 ± 0.28 under setting [2].
For YRKQNAYIATQGSLPETFGDFWRM [PTPRD] the same measures were 2.54 ± 0.39 and 2.12 ± 0.08.
In the same order, the values of LDMDDGTLSFIVDGQYMGVAFRGL [SPSB1] are 2.61 ± 0.67 and 2.32 ± 0.31.
In the same order, the values of AQEVSPCGPPSLGAVLALVAIFIM [MFSD9] are 2 ± 0.15 and 1.93 ± 0.39.
With GVDWEHIRERPAAIPIEIKSIDDT [STK38L], the protein stability index runs as follows: under setting [1], 4.68 ± 0.25; under setting [2], 4.99 ± 0.27.
In the same order, the values of QLQRSWVKMDQKSKHLKEMYQELM [TRIM43] are 2.36 ± 0.4 and 2.55 ± 0.75.
For MDEEKLKQLNCVEISALNGNRINV [DLC1] the same measures were 3.6 ± 0.34 and 3.67 ± 0.3.
Consider IATLRVALPSVMRFCCCVAVIYLG [MCOLN1], for which the protein stability index came to 3.29 ± 0.55 under setting [1] and 3.15 ± 0.21 under setting [2].
Turning to PDTGDNARLTYSIVGNQVQGAPAS [PCDHGC5], the protein stability index runs as follows: under setting [1], 4.42 ± 0.37; under setting [2], 4.52 ± 0.52.
Take NWLIKYDCPMDSSSSRDTDWVVVK [PI4K2A]: the protein stability index is 2.83 ± 0.77 under setting [1] and 3.1 ± 0.17 under setting [2].
In the same order, the values of KDLFTQRQNSAPARMLSSNERDSS [CDC25A] are 4.88 ± 0.23 and 4.84 ± 0.25.
For TSGQVVAVKKFVESEDDPVVKKIA [CDKL4] the same measures were 4.66 ± 0.06 and 4.82 ± 0.35.
In the same order, the values of TSEQAPSSAPRDVQARMLSSTTIL [PTPRD] are 4.08 ± 0.15 and 4.03 ± 0.38.
On to ILIVDWDVHHGNGTQHMFEDDPSV [HDAC6], for which the protein stability index under setting [1] amounted to 2.18 ± 0.23 and the protein stability index under setting [2] was 2.39 ± 0.21.
On to PQTPEPVEGRKHVDVQTELYLEEI [RSPH3], for which the protein stability index is, setting by setting: under setting [1], 3.78 ± 0.24; under setting [2], 4 ± 0.58.
SEAQLTDAETSKLIYDFIEDQGGL [WAS]: the protein stability index is 4.53 ± 0.38 under setting [1] and 4.62 ± 0.23 under setting [2].
As to LRGKFKRPPLRRVRMSADAMLKAL [TNNI2], the protein stability index reads like this: under setting [1], 2.25 ± 0.46; under setting [2], 2.4 ± 0.14.
For DSLKFAVLMWLLTYVGALFNGLTL [RTN1] the same measures were 3.69 ± 1.4 and 3.378 ± 0.013.
Consider SELGDYDPDECGSDYISEFRFAPN [EPB41L3], for which the protein stability index was found to be 2.22 ± 0.34 under setting [1] and 3.12 ± 0.78 under setting [2].
In the same order, the values of GCCKRRYLQKIEEFAEMVEREEED [KCNG1] are 3.57 ± 0.23 and 4 ± 0.53.
For YGLDSVKKKCLEWLLNNLMTHQNV [GMCL1] the same measures were 3.09 ± 0.26 and 2.73 ± 0.21.
In the same order, the values of FVKDPQGRIIAVFKPKNEEPYGHL [PI4K2A] are 2.32 ± 0.26 and 2.9 ± 0.23.
As for GGYNLASVSVWDLAAPSLHVKEQL [TLE6], the protein stability index reads like this: under setting [1], 2.38 ± 0.16; under setting [2], 2.68 ± 0.33.
For STESDKPTTGRVYESDSSNHCMLS [C18orf25] the same measures were 4.88 ± 0.2 and 4.89 ± 0.32.
On to ESEPPAPNIRNMAPNSLSAPTMLH [TRAF3IP2], for which the protein stability index is 4.54 ± 0.24 under setting [1] and 4.37 ± 0.34 under setting [2].
In the same order, the values of RSVRRERLKEMKLLRDQFVKALED [FAM9B] are 3.22 ± 0.27 and 3.05 ± 0.57.
In the same order, the values of SCSSDGGIAVWNMDVSREEAPQWL [WDFY1] are 3.07 ± 0.09 and 3.08 ± 0.23.
Regarding VCEEQKCEEEVFPLAMNYLDRFLS [CCND1], the protein stability index by setting is: under setting [1], 3.59 ± 0.079; under setting [2], 3.8 ± 0.18.
For EEEKEPLAVDSWWLDPGHTAVAQA [SERTAD1] the same measures were 4.8 ± 0.27 and 4.88 ± 0.23.
In the same order, the values of DFTTAAEDQPINLCDKLPPATALG [NOL4L] are 4.83 ± 0.18 and 4.78 ± 0.1.
In the same order, the values of CNFSIPEELEFQYRRVNELLLSIL [ZER1] are 2.34 ± 0.44 and 2.32 ± 0.42.
Take KKSRSPASAEAPGDSGERSEGEAM [ZNF511]: the protein stability index stood at 5.53 ± 0.39 under setting [1] and 5.57 ± 0.1 under setting [2].
For PHAMTIQELVDYVNARQKQGIYEE [PTPN9] the same measures were 3.23 ± 0.21 and 3.25 ± 0.41.
For GLWGTTLTENTAENRELYIKTTLR [PKD2L1] the same measures were 3.19 ± 0.15 and 3.2 ± 0.17.
LLVGAAVFDALESDHEMREEEKLK [KCNK9]: the protein stability index by setting is: under setting [1], 4.26 ± 0.34; under setting [2], 4.29 ± 0.24.
As to QHGLVLRDLKLCRFVFADRERKKL [TRIB3], the protein stability index runs as follows: under setting [1], 2.38 ± 0.12; under setting [2], 2.55 ± 0.18.
In the case of DKCMVCGGDGSGCSKQSGSFRKFR [ADAMTS4], the protein stability index runs as follows: under setting [1], 2.14 ± 0.11; under setting [2], 3.25 ± 0.85.
In the same order, the values of LMMRGVKHHNLEGLRKRIATLFFH [IQUB] are 2.34 ± 0.62 and 2.52 ± 0.7.
Regarding ERHSDLPPLNPTSWWADLRALARN [SPNS1], the protein stability index under setting [1] came to 3.34 ± 0.5 and the protein stability index under setting [2] stood at 3.34 ± 0.38.
For FHEDGPQGPGGDEDDDEEDTDKLL [PSD2] the same measures were 5.55 ± 0.32 and 5.59 ± 0.2.
In the case of SLQKLSTKLSAQSAQYSQQLQAAR [FCHSD1], the protein stability index under setting [1] was 3.34 ± 0.18 and the protein stability index under setting [2] was determined as 3.54 ± 0.22.
Take MTTESGSDSESKPDQEAEPQEAAG [EPB41L3]: the protein stability index reads like this: under setting [1], 5.62 ± 0.33; under setting [2], 5.56 ± 0.45.
Consider EDLEDLGAVAPPVSGDLTKEDIDL [NFE2L1], for which the protein stability index by setting is: under setting [1], 5.71 ± 0.4; under setting [2], 5.3 ± 0.76.
For the sequence CAVTFFTILLSYGVILHSLKTQSL [OR4A15], the protein stability index reads like this: under setting [1], 3.59 ± 0.13; under setting [2], 3.62 ± 0.69.
In the same order, the values of KKWGINTYKCTKQLLSERFGRGSR [ARFIP2] are 2.65 ± 0.28 and 2.86 ± 0.53.
For ALSYAQHTRQLISCGGDGGIVVWN [WDFY2] the same measures were 2.16 ± 0.47 and 2.12 ± 0.23.
Take TIMSLASLLFVVMFIPETKGCSLE [SLC2A12]: the protein stability index under setting [1] came out at 3.37 ± 0.21 and the protein stability index under setting [2] is 3.33 ± 0.83.
In the same order, the values of FGGMKSSGIGREGAKDSYDFFTEI [ALDH8A1] are 2.22 ± 0.66 and 2.52 ± 0.27.
For LFMKKNHEEEVKGLQAQIASSGLT [KRT18] the same measures were 3.81 ± 0.15 and 3.98 ± 0.27.
Consider SCLSSQSSALSQSGGGSTSAAGIE [SPACA3], for which the protein stability index under setting [1] was 4.78 ± 0.13 and the protein stability index under setting [2] amounted to 4.82 ± 0.063.
On to EGLGQSLGNFKDDLLNVCMRHVEK [TRIM29], for which the protein stability index by setting is: under setting [1], 3.62 ± 0.27; under setting [2], 3.78 ± 0.27.
For APAHVDEQVFLYENARSGAEAEPE [ZBED1] the same measures were 5.58 ± 0.21 and 5.51 ± 0.28.
